Results on seven molecules are retold here after patent US20250057927A1, “ALPHA-1 A[…] FROM YEAST FOR USE IN THE TREATMENT OF VIRAL INFECTIONS” (priority 2021, published 2025).

Entries after “also recorded” stand apart in the source; their conditions may differ. Structures can show the parent of a compound that is named as a salt.

In data set [1] the test system is SARS-CoV-2. The settings on record: pretreatment, Vero-E6 cells; cited from earlier work.
Another data set concerns PEDV. The settings on record: pretreatment, Vero-E6 cells; cited from earlier work.
For data set [2], the system named is Main Protease of coronaviruses. The settings on record: enzymatical assays; cited from earlier work.
Data set [3] deals with lentiviral SARS-CoV-2 pseudoparticles. Type of data set: cell-based.
The subject of data set [4] is protease-mediated entry of SARS-CoV-2. To be noted: in vitro; cited from earlier work.
The next data set concerns Covid-19. Also on record: species or system patients. To be noted: in vivo.
For data set [5], the target named is TMPRSS2 of Caco2 cells (UniProt O15393). Put plainly: cell-based or functional assay.
The target in data set [6] is TMPRSS2 of Caco2 cells (UniProt O15393 1-492). Put plainly: cell-based or functional assay.
Data set [7] concerns SARS-CoV-2. In kind it is cell-based.
The target in data set [8] is T1, recombinant human TMPRSS2 (Homo sapiens, UniProt O15393).
T1 construct: purchased LSBio LS-G57269
Put plainly: TMPRSS2 activity assay (fluorogenic reporter peptide substrate). To be noted: dose-dependent; read-out: IC50 of TMPRSS2 proteolytic activity. In kind it is biochemical. As to the method: The respective protease (TMPRSS2 or neutrophil elastase) is mixed with a serial dilution of rhAAT, camostat mesylate or Prolastin resulting in the formation of a complex between the test compound and the protease. Subsequently, a fluorogenic reporter peptide substrate is added. Upon cleavage of the reporter peptide substrate by the protease, a fluorescent dye is set free.
For assessing the activity of recombinant human TMPRSS2, 25 μl of serially diluted Prolastin, camostat mesylate or rhAAT is incubated with 25 μl of 2 μg/ml recombinant TMPRSS2 enzyme (LSBio #LS-G57269) in assay buffer (50 mM Tris-HCL, […] NaCl pH 8.0) for 15 min at 37° C. Next, 50 μl of 20 μM BOC-Gln-Ala-Arg-AMC protease substrate (Bachem #4017019) is added and incubated for 2 h at 37° C. Fluorescence intensity is measured after 2 h at an excitation wavelength of 380 nm and emission wavelength of 460 nm in a Synergy™ H1 microplate reader (BioTek) with Gen5 3.04 software. The assay is performed in a 96 well plate with flat bottom.

The next data set concerns Caco-2 cells. To be noted: in the tested concentrations.

Chain of TMPRSS2 of Caco2 cells (UniProt O15393) (O15393 whole entry): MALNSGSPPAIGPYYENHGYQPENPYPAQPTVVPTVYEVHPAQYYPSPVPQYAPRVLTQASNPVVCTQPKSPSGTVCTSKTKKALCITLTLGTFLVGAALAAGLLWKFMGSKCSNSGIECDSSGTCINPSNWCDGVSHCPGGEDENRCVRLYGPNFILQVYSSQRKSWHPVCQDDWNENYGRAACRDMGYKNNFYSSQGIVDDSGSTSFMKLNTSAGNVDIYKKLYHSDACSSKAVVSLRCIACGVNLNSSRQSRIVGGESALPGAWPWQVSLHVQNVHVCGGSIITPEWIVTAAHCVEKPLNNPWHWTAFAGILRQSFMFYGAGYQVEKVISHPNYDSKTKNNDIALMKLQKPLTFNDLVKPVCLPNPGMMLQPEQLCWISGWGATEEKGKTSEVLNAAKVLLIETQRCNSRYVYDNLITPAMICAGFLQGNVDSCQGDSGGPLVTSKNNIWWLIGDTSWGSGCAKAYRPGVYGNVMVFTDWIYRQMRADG
Chain of TMPRSS2 of Caco2 cells (UniProt O15393 1-492) (O15393 whole entry): as above
T1 sequence (O15393 whole entry): as above

Turning to `COc1cc(O)c(CC=C(C)C)c(O)c1C(=O)/C=C/c1ccc(O)cc1` [Xanthohumol], the SARS-CoV-2 replication entry in the data set with SARS-CoV-2 [1] is “restricted”. Further, the PEDV replication result in the data set on PEDV was “restricted”. Further, the “inhibition of protease activities” value in data set [2] is “inhibited protease activities”.
Consider `CN(C)C(=O)COC(=O)Cc1ccc(OC(=O)c2ccc(NC(=N)N)cc2)cc1` [camostat mesylate, reference compound], for which the “inhibition of the entry of SARS-CoV-2 pseudoparticles” value in [3] is “inhibits the entry of SARS-CoV-2”.
As to AAT, the “restriction of protease-mediated entry of SARS-CoV-2” value in data set [4] is “potently restricts”. Also, in the data set on Covid-19, the “Covid-19 PCR test” value is recorded as “negative” and the symptoms entry is recorded as “significantly improved; also recorded: no symptoms”.
Turning to Prolastin, the “inhibition of the entry of SARS-CoV-2 pseudoparticles” value in data set [3] is “inhibits the entry of SARS-CoV-2”. In the data set with Covid-19, the Covid-19 rapid tests entry is “negative” and the symptoms result is recorded as “no symptoms”.
As to “Prolastin: human serum derived AAT (from UniProt P01009 25-418)”, in the data set with TMPRSS2 of Caco2 cells [5], the IC50 of inhibiting pseudoparticle entry into Caco2 cells (Prolastin) is 3160 µg/mL and the estimated IC90 of pseudoparticle entry into Caco2 cells, derived from FIG. 4 was 20000 µg/mL.

B1: rec α1AT from supernatant of Pichia pastoris X33, anion exchange fractions 52 and 53 (other)
chain: EDPQGDAAQKTDTSHHDQDHPTFNKITPNLAEFAFSLYRQLAHQSNSTNIFFSPVSIATAFAMLSLGTKADTHDEILEGLNFNLTEIPEAQIHEGFQELLRTLNQPDSQLQLTTGNGLFLSEGLKLVDKFLEDVKKLYHSEAFTVNFGDTEEAKKQINDYVEKGTQGKIVDLVKELDRDTVFALVNYIFFKGKWERPFEVKDATEEEDFHVDQVTTVKVPMMKRLGMFNIQHCKKLSSWVLLMKYLGNATAIFFLPDEGKLQHLENELTHDIITKFLENEDRRSASLHLPKLSITGTYDLKSVLGQLGITKVFSNGADLSGVTEEAPLKLSKAVHKAVLTIDEKGTEAAGAMFLEAIPMSIPPEVKFNKPFVFLMIEQNTKSPLFMGKVVNPTQK
Turning to B1, in the data set with TMPRSS2 of Caco2 cells [6], the “IC50 of inhibiting pseudoparticle entry into Caco2 cells (rec α1AT Fraction 52)” value came to 3060 µg/mL and the “IC50 of inhibiting pseudoparticle entry into Caco2 cells (rec α1AT Fraction 53)” value is 3960 µg/mL.

B2: rhAAT (protein)
chain: EDPQGDAAQKTDTSHHDQDHPTFNKITPNLAEFAFSLYRQLAHQSNSTNIFFSPVSIATAFAMLSLGTKADTHDEILEGLNFNLTEIPEAQIHEGFQELLRTLNQPDSQLQLTTGNGLFLSEGLKLVDKFLEDVKKLYHSEAFTVNFGDTEEAKKQINDYVEKGTQGKIVDLVKELDRDTVFALVNYIFFKGKWERPFEVKDATEEEDFHVDQVTTVKVPMMKRLGMFNIQHCKKLSSWVLLMKYLGNATAIFFLPDEGKLQHLENELTHDIITKFLENEDRRSASLHLPKLSITGTYDLKSVLGQLGITKVFSNGADLSGVTEEAPLKLSKAVHKAVLTIDEKGTEAAGAMFLEAIPMSIPPEVKFNKPFVFLMIEQNTKSPLFMGKVVNPTQK
With B2, in [3], the “inhibition of the entry of SARS-CoV-2 pseudoparticles” value is “inhibits the entry of SARS-CoV-2 similar to Prolastin and camostat mesylate”; the pseudoparticle entry result is “almost no pseudoparticle entry”. In the data set on SARS-CoV-2 [7], the SARS-CoV-2 spike expression entry is given as “less detectable than Prolastin treated HAECs”, the “inhibition of SARS-CoV-2 replication” value is “more effectively than Prolastin” and the viral titer result is “reduce viral titer”. Moreover, the half-maximal inhibitory concentration (IC50) (in general, the concentration that gives 50% inhibition) in [8] was ~350 nM. For the same molecule, the “toxicity for Caco-2 cells” value in the data set on Caco-2 cells is reported as “nontoxic”.
